Unbinding force (peak of a single Gaussian), without 19A11 and unbinding force (peak of a single Gaussian), with 150 nM 19A11 data for 1 substance are collected here from article PMC9371698.

Test [1] addresses canine E-cadherin ectodomain K14E mutant (canine). Kind of test: single-molecule atomic force microscopy; biotinylated canine Ecad on streptavidin on PEG tethers on both AFM tip and coverslip; without 19A11 (−ab); pulling velocity 1 µm/s; pH 7.5, 10 mM Tris-HCl, 100 mM NaCl, 10 mM KCl, 2.5 mM CaCl2.
The target is the same in test [2]. Kind of test: single-molecule atomic force microscopy; as −ab, but tip and coverslip incubated with 19A11 Fab and 150 nM free 19A11 Fab in the measurement buffer (+ab); pulling velocity 1 µm/s; pH 7.5, 10 mM Tris-HCl, 100 mM NaCl, 10 mM KCl, 2.5 mM CaCl2.

“canine E-cadherin ectodomain K14E mutant (domain or fragment)” yielded an unbinding force (peak of a single Gaussian), without 19A11 in test [1] of 41.2 pN. In addition, the unbinding force (peak of a single Gaussian), with 150 nM 19A11 in test [2] is 40.3 pN.
